Experimental findings from patent publication US20210054027 are described below.

MMP-9 (recombinant human catalytic domain), sequence (chain, as listed by the source): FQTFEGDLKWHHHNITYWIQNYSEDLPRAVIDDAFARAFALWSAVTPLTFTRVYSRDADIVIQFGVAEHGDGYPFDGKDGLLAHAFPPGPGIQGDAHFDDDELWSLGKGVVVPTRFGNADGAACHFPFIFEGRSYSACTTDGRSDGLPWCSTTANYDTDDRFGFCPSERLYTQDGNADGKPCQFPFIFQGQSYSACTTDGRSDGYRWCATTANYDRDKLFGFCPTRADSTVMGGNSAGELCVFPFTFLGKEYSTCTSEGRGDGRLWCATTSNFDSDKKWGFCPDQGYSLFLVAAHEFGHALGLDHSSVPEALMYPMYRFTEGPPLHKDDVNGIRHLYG
Rho-KLDLCyclic, sequence (chain, as listed by the source): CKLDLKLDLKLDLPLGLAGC
Rho-KFDFCyclic, sequence (chain, as listed by the source): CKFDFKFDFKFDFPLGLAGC

Regarding “MMP-9 (recombinant human catalytic domain)”, the “enzymatic cleavage of progelator (LCMS, 5 hr)” value with KFDFCyclic is “KFDFCyclic and KLDLCyclic (data not shown) were treated with MI-associated enzymes, MMP-9 and elastase to confirm enzyme responsiveness”. Moreover, the “enzymatic cleavage of progelator (data not shown)” value in the data set on KLDLCyclic is “KFDFCyclic and KLDLCyclic (data not shown) were treated with MI-associated enzymes, MMP-9 and elastase to confirm enzyme responsiveness”. Moreover, the “enzymatic cleavage of progelator (visible aggregation, TEM fibers)” value is “Enzymatic cleavage by active MMP-9 and elastase (FIGS. 20a-20d) induced visible aggregation in the reaction vial and entangled fibrous meshes by TEM, whereas denatured enzymes elicited no response” in the data set with Rho-KLDLCyclic; “Enzymatic cleavage by active MMP-9 and elastase (FIGS. 20a-20d) induced visible aggregation in the reaction vial and entangled fibrous meshes by TEM, whereas denatured enzymes elicited no response” in the data set with Rho-KFDFCyclic.
Turning to Thermolysin, the “enzymatic cleavage of progelator (TEM fibers, CD)” value was “Despite the promiscuous activity of thermolysin, incubation with Rho-KLDLCyclic and Rho-KFDFCyclic induced fiber formation by TEM” in the data set with Rho-KLDLCyclic; “Despite the promiscuous activity of thermolysin, incubation with Rho-KLDLCyclic and Rho-KFDFCyclic induced fiber formation by TEM” in the data set with Rho-KFDFCyclic.
